The values that follow come from the supplement of paper PMC9112550, “Optimization of the antimicrobial peptide Bac7 by deep mutational scanning” (BMC Biology, 2022).

For the data set, the system named is Escherichia coli TOP10. Kind of data set: shrunken log2 fold change of peptide-encoding DNA abundance (4.5 h post-induction vs induction); higher = less antimicrobial activity (less host growth inhibition). Conditions: time post-induction: 4.5 h; library: site-saturation at positions 5, 18, 19, 20.
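Further: peptides expressed intracellularly from a pBAD plasmid library in pooled LB shake-flask culture, induced with 0.3% L-arabinose, DNA abundance read by NGS, three biological replicates, DESeq2 with apeglm shrinkage.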

For the sequence RRIRLRPPRLPRPRPRPNVFPRP, the “shrunken log2 fold change” value was -0.301.

In the case of RRIRPRPPRLPRPRPRPASHPRP, the “shrunken log2 fold change” value stood at 0.0473.

Take RRIRYRPPRLPRPRPRPTPPPRP: the “shrunken log2 fold change” value stood at 0.421.

Take RRIRKRPPRLPRPRPRPIKGPRP: the “shrunken log2 fold change” value was -0.141.

For the sequence RRIRLRPPRLPRPRPRPVSTPRP, the “shrunken log2 fold change” value is 0.255.

As for RRIRCRPPRLPRPRPRPKRLPRP, the “shrunken log2 fold change” value worked out at 0.0169.

Consider RRIRHRPPRLPRPRPRPEGSPRP, for which the “shrunken log2 fold change” value is -0.0192.

Consider RRIRDRPPRLPRPRPRPYTPPRP, for which the “shrunken log2 fold change” value is -0.95.

Consider RRIRCRPPRLPRPRPRPQHIPRP, for which the “shrunken log2 fold change” value is -0.868.

As to RRIRKRPPRLPRPRPRPMTQPRP, the “shrunken log2 fold change” value is -0.0547.

On to RRIRHRPPRLPRPRPRPLCQPRP, for which the “shrunken log2 fold change” value is -0.316.

As for RRIRGRPPRLPRPRPRPCDTPRP, the “shrunken log2 fold change” value worked out at 0.13.

Regarding RRIRGRPPRLPRPRPRPPQIPRP, the “shrunken log2 fold change” value amounted to 0.859.

Regarding RRIRSRPPRLPRPRPRPKRFPRP, the “shrunken log2 fold change” value amounted to 0.0952.

As for RRIRCRPPRLPRPRPRPNMHPRP, the “shrunken log2 fold change” value is -0.615.

With RRIRWRPPRLPRPRPRPADVPRP, the “shrunken log2 fold change” value is -0.305.

In the case of RRIRSRPPRLPRPRPRPTHLPRP, the “shrunken log2 fold change” value was 0.135.

Consider RRIRTRPPRLPRPRPRPHRFPRP, for which the “shrunken log2 fold change” value was -0.0213.

In the case of RRIRDRPPRLPRPRPRPTAHPRP, the “shrunken log2 fold change” value turned out to be 0.547.

As for RRIRLRPPRLPRPRPRPDPSPRP, the “shrunken log2 fold change” value came out at 0.0199.

With RRIRRRPPRLPRPRPRPRFAPRP, the “shrunken log2 fold change” value is 0.616.

Consider RRIRKRPPRLPRPRPRPVVLPRP, for which the “shrunken log2 fold change” value is -0.0253.

In the case of RRIRMRPPRLPRPRPRPTRFPRP, the “shrunken log2 fold change” value was 0.261.

In the case of RRIRPRPPRLPRPRPRPRMVPRP, the “shrunken log2 fold change” value was -0.263.

With RRIRDRPPRLPRPRPRPYQPPRP, the “shrunken log2 fold change” value is -0.0769.

With RRIRRRPPRLPRPRPRPKGPPRP, the “shrunken log2 fold change” value was found to be 0.465.

Regarding RRIRRRPPRLPRPRPRPKVIPRP, the “shrunken log2 fold change” value was -0.256.

As for RRIRPRPPRLPRPRPRPTTLPRP, the “shrunken log2 fold change” value was -0.0741.

For the sequence RRIRNRPPRLPRPRPRPIRMPRP, the “shrunken log2 fold change” value is -0.00776.

For the sequence RRIRYRPPRLPRPRPRPNKYPRP, the “shrunken log2 fold change” value is -0.908.

For the sequence RRIRERPPRLPRPRPRPGDEPRP, the “shrunken log2 fold change” value worked out at 0.115.

Consider RRIRDRPPRLPRPRPRPHHYPRP, for which the “shrunken log2 fold change” value was -0.0954.

Consider RRIRYRPPRLPRPRPRPKAQPRP, for which the “shrunken log2 fold change” value amounted to 0.35.

As for RRIRMRPPRLPRPRPRPHRHPRP, the “shrunken log2 fold change” value was -0.344.

Consider RRIRDRPPRLPRPRPRPQSQPRP, for which the “shrunken log2 fold change” value came out at 0.112.

Consider RRIRHRPPRLPRPRPRPMLFPRP, for which the “shrunken log2 fold change” value was -0.0839.

RRIRNRPPRLPRPRPRPAAVPRP: the “shrunken log2 fold change” value was 0.158.

Take RRIRDRPPRLPRPRPRPIKMPRP: the “shrunken log2 fold change” value stood at 0.0713.

Take RRIRRRPPRLPRPRPRPERGPRP: the “shrunken log2 fold change” value was 0.798.

In the case of RRIRKRPPRLPRPRPRPIYGPRP, the “shrunken log2 fold change” value is -0.00172.

With RRIRVRPPRLPRPRPRPPLHPRP, the “shrunken log2 fold change” value turned out to be 0.128.

As to RRIRPRPPRLPRPRPRPFVRPRP, the “shrunken log2 fold change” value was -0.117.

RRIRCRPPRLPRPRPRPKVWPRP: the “shrunken log2 fold change” value came out at 0.261.

Consider RRIRDRPPRLPRPRPRPEQRPRP, for which the “shrunken log2 fold change” value was 0.0765.

With RRIRERPPRLPRPRPRPATRPRP, the “shrunken log2 fold change” value was found to be 0.102.

As for RRIRRRPPRLPRPRPRPPDVPRP, the “shrunken log2 fold change” value turned out to be 0.474.

As for RRIRHRPPRLPRPRPRPTFLPRP, the “shrunken log2 fold change” value was -0.0769.

In the case of RRIRDRPPRLPRPRPRPIFNPRP, the “shrunken log2 fold change” value was -0.239.

Regarding RRIRIRPPRLPRPRPRPMVGPRP, the “shrunken log2 fold change” value was determined as 0.105.

In the case of RRIRERPPRLPRPRPRPETEPRP, the “shrunken log2 fold change” value was 0.192.

Take RRIRNRPPRLPRPRPRPRMRPRP: the “shrunken log2 fold change” value came out at 0.867.

With RRIRSRPPRLPRPRPRPSEPPRP, the “shrunken log2 fold change” value was -0.167.

As for RRIRTRPPRLPRPRPRPANSPRP, the “shrunken log2 fold change” value was -0.119.

Consider RRIRVRPPRLPRPRPRPNWAPRP, for which the “shrunken log2 fold change” value was -0.0443.

In the case of RRIRVRPPRLPRPRPRPSWYPRP, the “shrunken log2 fold change” value is -0.698.

Turning to RRIRGRPPRLPRPRPRPAQRPRP, the “shrunken log2 fold change” value came to 0.858.

Turning to RRIRLRPPRLPRPRPRPITAPRP, the “shrunken log2 fold change” value is -0.0526.

Take RRIRFRPPRLPRPRPRPVDDPRP: the “shrunken log2 fold change” value is -0.601.

Regarding RRIRCRPPRLPRPRPRPAYRPRP, the “shrunken log2 fold change” value is -0.194.

In the case of RRIRVRPPRLPRPRPRPSQSPRP, the “shrunken log2 fold change” value was -0.146.

Consider RRIRGRPPRLPRPRPRPKTLPRP, for which the “shrunken log2 fold change” value was found to be 0.872.

Turning to RRIRGRPPRLPRPRPRPGQKPRP, the “shrunken log2 fold change” value amounted to 0.494.

For RRIRARPPRLPRPRPRPWTGPRP, the “shrunken log2 fold change” value amounted to 0.00192.

For the sequence RRIRYRPPRLPRPRPRPGAFPRP, the “shrunken log2 fold change” value is -0.805.

In the case of RRIRPRPPRLPRPRPRPQMYPRP, the “shrunken log2 fold change” value is -0.338.

As for RRIRVRPPRLPRPRPRPQEYPRP, the “shrunken log2 fold change” value is 0.0203.

RRIRTRPPRLPRPRPRPWQAPRP: the “shrunken log2 fold change” value was 0.177.

As to RRIRIRPPRLPRPRPRPQMEPRP, the “shrunken log2 fold change” value was -0.12.

Take RRIRYRPPRLPRPRPRPMSYPRP: the “shrunken log2 fold change” value is -0.0389.

Consider RRIRDRPPRLPRPRPRPEQYPRP, for which the “shrunken log2 fold change” value turned out to be 0.215.

Regarding RRIRCRPPRLPRPRPRPDCGPRP, the “shrunken log2 fold change” value was -0.169.

Consider RRIRYRPPRLPRPRPRPADLPRP, for which the “shrunken log2 fold change” value was -0.00419.

Turning to RRIRGRPPRLPRPRPRPIEGPRP, the “shrunken log2 fold change” value is 0.0275.

On to RRIRHRPPRLPRPRPRPNHMPRP, for which the “shrunken log2 fold change” value turned out to be 0.124.

Turning to RRIRMRPPRLPRPRPRPSCRPRP, the “shrunken log2 fold change” value came to 0.46.

Take RRIRWRPPRLPRPRPRPVENPRP: the “shrunken log2 fold change” value was -0.101.

As to RRIRVRPPRLPRPRPRPTATPRP, the “shrunken log2 fold change” value is 0.272.

With RRIRVRPPRLPRPRPRPNNEPRP, the “shrunken log2 fold change” value is -0.301.

For the sequence RRIRWRPPRLPRPRPRPNAPPRP, the “shrunken log2 fold change” value worked out at 0.328.

For RRIRTRPPRLPRPRPRPHVPPRP, the “shrunken log2 fold change” value was -0.374.

With RRIRIRPPRLPRPRPRPTVQPRP, the “shrunken log2 fold change” value was -0.146.

In the case of RRIRKRPPRLPRPRPRPTHDPRP, the “shrunken log2 fold change” value is -0.101.

For the sequence RRIRWRPPRLPRPRPRPYYQPRP, the “shrunken log2 fold change” value was -0.297.

As for RRIRDRPPRLPRPRPRPYMQPRP, the “shrunken log2 fold change” value is -0.0171.

RRIRQRPPRLPRPRPRPLMNPRP: the “shrunken log2 fold change” value is -0.131.

For the sequence RRIRDRPPRLPRPRPRPMYQPRP, the “shrunken log2 fold change” value was -0.075.

As to RRIRHRPPRLPRPRPRPEQDPRP, the “shrunken log2 fold change” value stood at 0.057.

Take RRIRYRPPRLPRPRPRPDHGPRP: the “shrunken log2 fold change” value is -0.0075.

Take RRIRMRPPRLPRPRPRPHRPPRP: the “shrunken log2 fold change” value amounted to 0.066.

With RRIRPRPPRLPRPRPRPEYHPRP, the “shrunken log2 fold change” value is -0.0649.

As to RRIRKRPPRLPRPRPRPETLPRP, the “shrunken log2 fold change” value was 0.0437.

For the sequence RRIRLRPPRLPRPRPRPIEGPRP, the “shrunken log2 fold change” value stood at 0.0046.

Regarding RRIRDRPPRLPRPRPRPRQTPRP, the “shrunken log2 fold change” value was determined as 0.612.

With RRIRKRPPRLPRPRPRPTAFPRP, the “shrunken log2 fold change” value was 0.355.

As for RRIRDRPPRLPRPRPRPSHMPRP, the “shrunken log2 fold change” value was -0.0936.

On to RRIRLRPPRLPRPRPRPVTVPRP, for which the “shrunken log2 fold change” value is -0.128.

In the case of RRIRNRPPRLPRPRPRPWKIPRP, the “shrunken log2 fold change” value was found to be 0.089.

Turning to RRIRMRPPRLPRPRPRPTTIPRP, the “shrunken log2 fold change” value was -0.198.

Consider RRIRERPPRLPRPRPRPHPGPRP, for which the “shrunken log2 fold change” value came to 0.033.

On to RRIRWRPPRLPRPRPRPRHTPRP, for which the “shrunken log2 fold change” value was -0.0876.

Regarding RRIRDRPPRLPRPRPRPMELPRP, the “shrunken log2 fold change” value was determined as 0.0119.

With RRIRPRPPRLPRPRPRPMRWPRP, the “shrunken log2 fold change” value was 0.707.

As for RRIRLRPPRLPRPRPRPSACPRP, the “shrunken log2 fold change” value is -0.484.

Turning to RRIRGRPPRLPRPRPRPIINPRP, the “shrunken log2 fold change” value turned out to be 0.0488.

On to RRIRIRPPRLPRPRPRPNCEPRP, for which the “shrunken log2 fold change” value was -0.525.

Regarding RRIRSRPPRLPRPRPRPKCVPRP, the “shrunken log2 fold change” value is -0.138.

As to RRIRARPPRLPRPRPRPCHDPRP, the “shrunken log2 fold change” value was -0.00479.

With RRIRKRPPRLPRPRPRPSTAPRP, the “shrunken log2 fold change” value is -0.177.

Turning to RRIRDRPPRLPRPRPRPPRHPRP, the “shrunken log2 fold change” value was 0.377.

As to RRIRHRPPRLPRPRPRPMFQPRP, the “shrunken log2 fold change” value was -0.0107.

RRIRQRPPRLPRPRPRPKRAPRP: the “shrunken log2 fold change” value is 0.0973.

In the case of RRIRDRPPRLPRPRPRPEYPPRP, the “shrunken log2 fold change” value was -0.0367.

Regarding RRIRCRPPRLPRPRPRPNWTPRP, the “shrunken log2 fold change” value was -0.0217.

Consider RRIRIRPPRLPRPRPRPAGYPRP, for which the “shrunken log2 fold change” value is -0.038.

As for RRIRKRPPRLPRPRPRPAVMPRP, the “shrunken log2 fold change” value is 0.881.

For the sequence RRIRARPPRLPRPRPRPQLDPRP, the “shrunken log2 fold change” value was 0.654.

As for RRIRNRPPRLPRPRPRPWTVPRP, the “shrunken log2 fold change” value was -0.0833.

RRIRKRPPRLPRPRPRPQGWPRP: the “shrunken log2 fold change” value was 0.116.

On to RRIRLRPPRLPRPRPRPEFHPRP, for which the “shrunken log2 fold change” value is -0.113.

For RRIRTRPPRLPRPRPRPAAGPRP, the “shrunken log2 fold change” value is 0.375.

With RRIRPRPPRLPRPRPRPIQLPRP, the “shrunken log2 fold change” value was -0.0767.

Turning to RRIRHRPPRLPRPRPRPEFAPRP, the “shrunken log2 fold change” value is 0.0409.

For RRIRARPPRLPRPRPRPWWQPRP, the “shrunken log2 fold change” value is 0.00618.

Turning to RRIRARPPRLPRPRPRPEMEPRP, the “shrunken log2 fold change” value came to 1.3.

Consider RRIRLRPPRLPRPRPRPVPEPRP, for which the “shrunken log2 fold change” value turned out to be 0.161.
